Measurements published in patent US20080118509A1 (CEPHALON AUSTRALIA, published 2008).

Target: T1, CEA (180 KDa glycoprotein purified from colorectal tumour liver metastases by affinity chromatography with … (UniProt P06731 35-685))
T1 construct: Native glycoprotein dried onto microtitre plates; also called purified CEA
T1 sequence (looked up): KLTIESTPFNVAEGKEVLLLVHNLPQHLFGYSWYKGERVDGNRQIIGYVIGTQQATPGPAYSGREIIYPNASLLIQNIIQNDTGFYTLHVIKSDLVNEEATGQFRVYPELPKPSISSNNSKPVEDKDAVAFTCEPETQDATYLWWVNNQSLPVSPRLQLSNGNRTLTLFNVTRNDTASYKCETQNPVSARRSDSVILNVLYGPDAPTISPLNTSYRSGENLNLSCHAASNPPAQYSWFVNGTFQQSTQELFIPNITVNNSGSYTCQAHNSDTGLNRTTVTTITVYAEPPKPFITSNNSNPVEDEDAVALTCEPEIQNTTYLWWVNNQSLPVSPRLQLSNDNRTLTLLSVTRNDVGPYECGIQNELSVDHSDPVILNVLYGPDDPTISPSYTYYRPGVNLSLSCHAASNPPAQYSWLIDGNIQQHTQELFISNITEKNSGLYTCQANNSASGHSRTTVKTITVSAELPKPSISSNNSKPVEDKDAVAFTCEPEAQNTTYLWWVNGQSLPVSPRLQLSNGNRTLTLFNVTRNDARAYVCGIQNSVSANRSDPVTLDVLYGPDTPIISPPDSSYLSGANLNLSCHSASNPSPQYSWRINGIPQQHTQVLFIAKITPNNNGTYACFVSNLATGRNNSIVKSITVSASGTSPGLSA
Test: ELISA, antigen dried onto microtitre plates (FIG. 4)
Procedure: (§1) The C14 antigen (90 KDa glycoprotein purified from saliva by affinity chromatography on C14 monoclonal), CEA (180 KDa glycoprotein purified from colorectal tumour live metastases by affinity chromatography with 365 mab) and glycolipid extract (glycolipid extracted in 3:1 methanol chloroform w/v from colorectal tumours) were dried onto microtitre plates by overnight incubation at 37° C. Binding of SC104 mab was assayed by ELISA and results expressed as absorbance 405 nm. SC101 and anti-CEA antibodies are included as positive controls.
as §1, with “Binding to purified antigen preparations. The” for “The”, “ELISA” for “ELISA and results expressed”, “described above.” for “absorbance 405 nm. SC101 and anti-CEA antibodies are included as positive controls.”

- binding result: no binding
B1: SC104 monoclonal antibody (antibody, V domains shown)
VH: DVQLQESGPDLVKPSQSLSLTCTVTGYSITSGYSWHWVRQFPGNKMEWMGHIHFSGRPTYNPSLSSRISITRDTSKNQFLLQLKFVTTEDTSTYFCARKGKGSDDGLNYWGQGISVTVSS
VL: ENVLTQSPVIMSASPGEKVTMTCSASSSLSYIHWYQQKSRTSPKLWIYDTSNLASGVPGRFSGSGSGNSYSLTISSMEAEDVATYYCFQGSEYPLTFGGGTKLEMT
notes: Mouse IgG1 mab with kappa light chain, from hybridoma SC104/1E9; also called SC104 mab; SC104 antibody
